Data taken from US20020160955A1 (published 2002).
Positions count from the first letter of the chain named.

Experiments:
Test in all cases: competitive phage ELISA
[1] = molecular target: T1, IGF-I D53A (G1S-A70V background) displayed on phage (human; bacteriophage M13)
T1 construct: monovalent M13 phage display
T1 chain: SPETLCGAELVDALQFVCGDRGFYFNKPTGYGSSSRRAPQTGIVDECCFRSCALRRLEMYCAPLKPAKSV
Method: (§1) Phage particles were harvested and resuspended in PBS buffer as described in Lowman, H. B., “Phage Display of Peptide Libraries on Protein Scaffolds,” in Cabilly, S. (ed.), Combinatorial Peptide Library Protocols (Humana Press Inc.: Totowa, N.J., 1998), pp. 249-264. Then phage concentrations were normalized to yield a maximal ELISA signal of 0.2-0.4 for each mutant (Lowman, in Cabilly, S. (ed.), supra). Threefold serial dilutions of soluble competitor were prepared on non-absorbent microtiter plates (Nunc, F, 96 wells) with binding buffer (0.5% TWEEN™ 20/PBS) containing phage at the previously-determined concentrations. […] After blocking, the plates containing immobilized target were washed with 0.05% TWEEN™/PBS buffer and subsequently incubated with 80 μl/well of the premixed phage-competitor solutions for 1 hour at room temperature. After washing, bound phage was detected with 80 μl/well of a solution containing a primary rabbit anti-phage polyclonal antibody and a secondary goat anti-rabbit monoclonal antibody-horseradish peroxidase conjugate in 0.5% TWEEN 20™/PBS. o-Phenylenediamine (Sigma) and tetramethylbenzidine (Kirkegaard and Perry) were used as chromogenic substrates, resulting in product detection at 492 and 450 nm, respectively. IC₅₀ values were determined by fitting the binding data to a generic saturation curve (Lowman, in Cabilly, S. (ed.), supra). […] Numbers in Table I represent mean +standard deviation of individually assessed IC₅₀ values.
(§2) At least two different clones of every mutant were tested.

[2] = molecular target: T2, IGF-I M59A (G1S-A70V background) displayed on phage (human; bacteriophage M13)
T2 construct: monovalent M13 phage display; not shown: M13 gene III protein fragment (residues 249-406), the phage display carrier, and its junction to IGF-I
T2 chain: T1 chain with A53D, M59A
Method: as §1, §2

[3] = molecular target: T3, IGF-I G42A (G1S-A70V background) displayed on phage (human; bacteriophage M13)
T3 construct: monovalent M13 phage display
T3 chain: T1 chain with G42A, A53D
Method: as §1, §2

[4] = molecular target: T4, IGF-I R50A (G1S-A70V background) displayed on phage (human; bacteriophage M13)
T4 construct: monovalent M13 phage display
T4 chain: T1 chain with R50A, A53D
Method: as §1, §2

[5] = molecular target: T5, IGF-I F23A (G1S-A70V background) displayed on phage (human; bacteriophage M13, not fully specified; Displayed monovalently on M13 phage as a C-terminal fusion to the gene III fragment, which is left out of the letters.)
T5 construct: monovalent M13 phage display; not shown: Display carrier: M13 gene III fragment (residues 249-406) and its junction
T5 chain: T1 chain with F23A, A53D
Method: as §1, §2

[6] = molecular target: T6, IGF-I S34A (G1S-A70V background) displayed on phage (human; bacteriophage M13)
T6 construct: monovalent M13 phage display; not shown: M13 gene III fragment (residues 249-406, display partner) and the junction to it
T6 chain: T1 chain with S34A, A53D
Method: as §1, §2

[7] = molecular target: T7, IGF-I S51A (G1S-A70V background) displayed on phage (human; bacteriophage M13)
T7 construct: monovalent M13 phage display
T7 chain: T1 chain with S51A, A53D
Method: as §1, §2

[8] = molecular target: T8, IGF-I I43A (G1S-A70V background) displayed on phage (human; bacteriophage M13)
T8 construct: monovalent M13 phage display
T8 chain: T1 chain with I43A, A53D
Method: as §1, §2

[9] = molecular target: T9, IGF-I E9A (G1S-A70V background) displayed on phage (human; bacteriophage M13)
T9 construct: monovalent M13 phage display
T9 chain: T1 chain with E9A, A53D
Method: as §1, §2

[10] = molecular target: T10, IGF-I S1A (G1S-A70V background) displayed on phage (human; bacteriophage M13)
T10 construct: range 249-406; monovalent M13 phage display
Method: as §1, §2

[11] = molecular target: T11, IGF-I V44A (G1S-A70V background) displayed on phage (human; bacteriophage M13)
T11 construct: monovalent M13 phage display
T11 chain: T1 chain with V44A, A53D
Method: as §1, §2

[12] = molecular target: T12, IGF-I E58A (G1S-A70V background) displayed on phage (human; bacteriophage M13)
T12 construct: monovalent M13 phage display; not shown: M13 gene III protein fragment (residues 249-406), the phage display carrier, and its junction to IGF-I
T12 chain: T1 chain with A53D, E58A
Method: as §1, §2

[13] = molecular target: T13, IGF-I D20A (G1S-A70V background) displayed on phage (human; bacteriophage M13, not fully specified; Displayed monovalently on M13 phage as a C-terminal fusion to the gene III fragment, which is left out of the letters.)
T13 construct: monovalent M13 phage display; not shown: Display carrier: M13 gene III fragment (residues 249-406) and its junction
T13 chain: T1 chain with D20A, A53D
Method: as §1, §2

[14] = molecular target: T14, IGF-I D45A (G1S-A70V background) displayed on phage (human; bacteriophage M13)
T14 construct: monovalent M13 phage display
T14 chain: T1 chain with D45A, A53D
Method: as §1, §2

[15] = molecular target: T15, IGF-I G19A (G1S-A70V background) displayed on phage (human; bacteriophage M13)
T15 construct: monovalent M13 phage display
T15 chain: T1 chain with G19A, A53D
Method: as §1, §2

B1: human IGFBP-1 (other, UniProt P08833 26-259, looked up)
chain: APWQCAPCSAEKLALCPPVSASCSEVTRSAGCGCCPMCALPLGAACGVATARCARGLSCRALPGEQQPLHALTRGQGACVQESDASAPHAAEAGSPESPESTEITEEELLDNFHLMAPSEEDHSILWDAISTYDGSKALHVTNIKKWKEPCRIELYRVVESLAKAQETSGEEISKFYLPNCNKNGFYHSRQCETSMDGEAGLCWCVYPWNGKRIPGSPEIRGDPNCQIYFNVQN
notes: secreted recombinant protein purified from conditioned medium
- IC50 [1]: 15.3 nM
- IC50 [2]: 13.1 nM
- IC50 [3]: 15.7 nM
- IC50 [4]: 16.2 nM
- IC50 [5]: 10.9 nM
- IC50 [6]: 9.5 nM
- IC50 [7]: 13.4 nM
- IC50 [8]: 31.3 nM
- IC50 [9]: 8.6 nM
- IC50 [10]: 5.2 nM
- IC50 [11]: 18.8 nM
- IC50 [12]: 11.9 nM
- IC50 [13]: 8.4 nM
- IC50 [14]: 4.7 nM
- IC50 [15]: 11 nM
